From PMC8277577 (Nature, 2021)

B1: C1015 (antibody, V domains shown)
VH: QVQLQESGPRLVKPSGSLSLTCAVSGGSLSSSNWWNWVRQSPEKGLEWIGEIFHSGSTYYNPSLKSRVTISVDKSKNHFSLNLRSVTAADTAVYYCAGSYSNYIGGVWFDPWGQGTLVTVSS
VL: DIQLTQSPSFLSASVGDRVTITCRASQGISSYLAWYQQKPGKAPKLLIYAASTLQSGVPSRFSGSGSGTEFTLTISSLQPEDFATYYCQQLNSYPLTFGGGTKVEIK
notes: source: recombinant, purified
B2: C581 (antibody, V domains shown)
VH: EVQLVQSGAEVKKPGESLKISCKGSGYRFTSYWIAWVRQMPGKGLEWMGIIYPGDSDTRYSPSFQGQVTISADQSISTAYLQWSSLKASDTAMYYCARGGPPGGVKLELTDYWGQGALVTVSS
VL: not shown
notes: source: recombinant, purified
B3: C908 (antibody, V domains shown)
VH: EVQLVQSGAEVKKPGESLKISCKASGYSFTIYWIGWVRQMPGKGLEWMGIIYPGESETRYSPSFQGQVTISADKSISTAYLQWRSLKASDTAMYYCARGGPPGGVKLELTDYWGQGTLVTVSS
VL: not shown
notes: source: recombinant, purified
B4: C841 (antibody, V domains shown)
VH: EVQLVESGGGLVQPGGSLRLSCAASGFTFSIFSMNWVRQAPGKGLEWISYISSSSGSRHYADSVKGRFTISRDNAKNSLYLQMNNLRDEDTAMYYCAREAHDGALTGYGDYLNWFDPWGQGVLVTVSS
VL: SYELTQPPSVSVAPGKTARIPCGGDSVGSKSVHWYQQKSGQAPVLVIHSDSDRPSGIPERFSGSNSGNTATLTITGVAAGDEADYYCHVWDTIGDRFYWVFGGGTKLTVL
notes: source: recombinant, purified
B5: C1010 (antibody, V domains shown)
VH: QVQLVESGGGVVQPGRSLRLSCAASGFTFSSYAMHWVRQAPGKGLEWVAVISYDGSNKYYADSVKGRFTISRDNSKNTLYLQMNSLRAEDTAVYYCAKKGQPYCGGDCYFYYFDYWGQGTLVTVSS
VL: DIQMTQSPSSLSASLGDRVTITCQASQDISNYLNWYQQKPGKAPKLLIYDASNLETGVPSRFSGSGSGTDFTFTISSLQPEDIATYYCQQYDNLPPITFGQGTRLEIK
notes: source: recombinant, purified
B6: C1011 (antibody, V domains shown)
VH: QVQLVESGGGVVQPGRSLRLSCAVSGFTFSHYAMHWVRQAPGKGLEWVAVISYDGADKYYADSVRGRFTIARDNSKNTLFLQMSSLRPEDTAVYYCAKKGQPYCGGDCHFYYLDYWGQGTLVTVSS
VL: DIQMTQSPSSLSASVGDRVTITCQASQDISNHLNWYQQKPGKAPKLLIYDASNLETGVPSRFSGSGSGTDFTFTISSLQAEDIATYYCQQYDNLPPITFGQGTRLEIK
notes: source: recombinant, purified
B7: C916 (antibody, V domains shown)
VH: EVQLVESGGGLVQPGGSLRLSCAASGFTFSNYDMHWVRQATGRGLEWVSTIGTAGDTYYPGSVKGRFTISRENAKNSLYLQMNSLRAGDTALYYCARVRYDSSGYFWSLDYWGQGTLVTVSS
VL: not shown
notes: source: recombinant, purified
B8: C917 (antibody, V domains shown)
VH: EVQLVESGGGLVQPGGSLRLSCAASGFTFSNYDMHWVRQATGKGLDWVSTIGTAGDTYYPGSVKGRFTISRENAKNSLYLQMNSLRAGDTAVYYCARVRFDTSGYFWSLDYWGQGTLVTVSS
VL: not shown
notes: source: recombinant, purified
B9: C936 (antibody, V domains shown)
VH: EVQLVESGGGLIQPGGSLRLSCAASGFTVSSNYMSWVRQAPGKGLEWVSVIYSGGSTFYADSVKGRFTISRDNSKNTLYLQMNSLRAEDTAVYYCARDLGTGLFDYWGQGTLVTVSS
VL: DIQLTQSPSFLSASVGDRVTITCRASQGISSYLAWYQQKPGKAPKLLIYAASTLQSGVPSRFSGSGSGTEFTLTISSLQPEDFATYYCQQLDSYPPGTFGPGTKVDIK
notes: source: recombinant, purified

Target: T1, SARS-CoV-2 receptor binding domain (RBD) (SARS-CoV-2, GenBank MN985325.1 …, UniProt P0DTC2)
Test: ELISA
Settings: both partners purified

**Q.** Does B1 bind?
**A.** Result: no binding (tested: >1000 ng/ml)

Target: T1, SARS-CoV-2 receptor binding domain (RBD)
Test: BLI
Settings: both partners purified

**Q.** With B2 as the binder, how does the Kd read?
**A.** Its Kd is 0.0725 nM.

**Q.** How did the Kd turn out when B3 was run?
**A.** Its Kd is 0.00384 nM.

**Q.** B4 was tested. Which Kd did it give?
**A.** Its Kd is 6.08 nM.

**Q.** How did the Kd turn out when B5 was run?
**A.** The Kd was 16.3 nM.

**Q.** With B6 as the binder, how does the Kd read?
**A.** Its Kd is 0.0121 nM.

**Q.** With B7 as the binder, how does the Kd read?
**A.** The Kd was 2.92 nM.

**Q.** How did the Kd turn out when B8 was run?
**A.** Its Kd is 0.999 nM.

**Q.** Which Kd does the source give for B9 here?
**A.** Its Kd is 157 nM.
